The supplement of paper PMC12764529
± gives the half width of the 95% confidence interval.

What was measured:
[1] = folding stability dG unfold from trypsin proteolysis; higher = more stable
Method in brief: (§1)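 Sequencing followed digestion of designed mini-proteins with trypsin and chymotrypsin, each at 11 concentrations in threefold dilutions together with a no-protease condition. The mini-proteins were under 80 residues, had no cysteine, sat in a PA-tagged cDNA display construct, and were kept only if AlphaFold2 dimer inter-PAE was above 15. From the counts, Bayesian fitting gave K50, and unfolding free energy was derived against a sequence-predicted unfolded-state K50 and a shared folded-state K50, per protease or combined.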

[2] = folding stability dG unfold from chymotrypsin proteolysis; higher = more stable
Method in brief: as §1

[3] = folding stability dG unfold (combined trypsin and chymotrypsin); higher = more stable
Method in brief: as §1

Sequence | folding stability dG unfold [1] [kcal/mol] | folding stability dG unfold [2] [kcal/mol] | folding stability dG unfold [3] [kcal/mol]
SMTLTIDLDPSVPYLVRIHFVNEDGEPYEADALTTRTPDGTAFVDIALPDDSIPPGADIKILSVEVIPLDSA [r9_359_TrMRF] | 1.63 ± 0.019 | 2.1 ± 0.054 | 1.96 ± 0.051
SAGGKITIEVTYNKETGEITIRITFNGKTIEIKIKVPGLSEEEVKKLAEELAKKLKEKYGIDKVEITSAGGS [r16_249_TrROS_Hall] | 4.36 ± 0.45 | 4.4 ± 0.11 | 4.36 ± 0.29
SAGGSIETIAERARDLARELNPDDGKEYPITIEIRDPENNRPIRIKISVRYDPDGKIKKVKFTKFEPYSAGG [r13_770_TrROS] | 1.03 ± 0.06 | 1.04 ± 0.11 | 1.06 ± 0.077
SAGGSAGGSAGGWFYKRDPDGKPLEPRPVVVIKISYEISYDADGGWKLKLNISIYPVYWISAGGSAGGSAGG [r7_572_TrROS] | 3.58 ± 0.15 | 5.01 ± 0.15 | 4.77 ± 0.31
SAGGSMISTLSESVDPAKNTTYYLNLYTEGSRAYGALVTVTTDPATGTKTITTKFPALPEVTTTETVASAGG [r13_615_JUSTAS] | 0.511 ± 0.026 | 0.489 ± 0.061 | 0.551 ± 0.034
SAGGSAGGMLRVRVETTLPGSGETLDLELEFPSEEEARRAIEALVPPEERAEVRVEFLPPGVPESAGGSAGG [r6_657_JUSTAS] | -0.156 ± 0.37 | 1.44 ± 0.08 | 1.06 ± 0.1
SAMKVTVKPTTLPDGTTVVVTTEPDKIVAYGTYNGDSFTSESLPDGTVVTTAKKPGGVLVTSPTDPNLESAG [r14_213_JUSTAS] | 0.26 ± 0.02 | 0.112 ± 0.14 | 0.265 ± 0.074
SAGGKKVKIKVTIVIKVEPGESVEEIAKKLAEELGLKVEVKVEVVKRKDGSLYVVIEVEIELPEELKPSAGG [r13_590_TrROS_Hall] | 2.3 ± 0.16 | 3.18 ± 0.24 | 2.85 ± 0.56
SAMIVKDLKTKEEIKKVLEEIAKKLGYPNVTPEEAEEILKKIGVKILSIEKNPKNPEKYIIKIKIEKPKSAG [r14_678_JUSTAS] | 2.23 ± 0.1 | 2.34 ± 0.033 | 2.29 ± 0.14
SAGGSLKDMPVEDLAKYFARKMGYPITDVKVERNPDPPWIKINIEMEHPNDGRRHPHEIWIPKDDISAGGSA [r2_156_TrROS] | 0.527 ± 0.062 | 1.3 ± 0.11 | 0.995 ± 0.083
SAGGSAGGSPNPKVVPFTFPVVIPDEDGHPYLVNVTVTAIPDTDTYYARITYPDGRVEDFVLASAGGSAGGS [r12_286_TrMRF] | 1.94 ± 0.049 | 2.494 ± 0.015 | 2.33 ± 0.04
SAGGSAGGSKKAEELAKKLGLEVEIVKVEKKKDGSEVVIVKIKNKDGSELTLVVKDGKVELFPSAGGSAGGS [r12_279_TrROS_Hall] | 1.79 ± 0.081 | 2.44 ± 0.073 | 2.24 ± 0.079
SAGGSAGGSAGGAKTTTLGSESEEEIRAVAAKLPADSTITTNRPGGTSVITVSPNEIVTNSAGGSAGGSAGG [r7_560_JUSTAS] | 0.144 ± 0.043 | 1.22 ± 0.046 | 0.836 ± 0.055
SAGNMFMVRITFPMPRYEQKRDPDNGKPKMEPKPHPREITIMVPPDSPQARDLANKLAPPGWKVDVFPMSAG [r5_468_TrROS] | 0.0695 ± 0.58 | 1.43 ± 0.22 | 1.09 ± 0.19
SAGGSAGGSAGNDVINKKYTYTITETTEEKTPTDDPVSTTITTPIEITVKAPKDEVVIPDSAGGSAGGSAGG [r11_174_JUSTAS] | -0.6 ± 0.15 | 0.644 ± 0.25 | 0.31 ± 0.22
SAGGSAGGSAGMSTTPVAYKFTFTLPGGETLEREGTDVAALKEALKAEYGAVEITVTPVSSAGGSAGGSAGG [r17_508_JUSTAS] | 2.2 ± 0.042 | 2.07 ± 0.12 | 2.17 ± 0.1
SAGGSADVVLVEVRPPVLDPEGRPLLTLVLRLPDGGSRTLVVELSDLAGALANLPPNVRVDEIRPLSAGGSA [r15_339_TrMRF] | 0.443 ± 0.093 | 2.31 ± 0.035 | 2.01 ± 0.067
SAGGKEIKIEVELDEDGNLTVTITLPDGRVVRITFTPGKITVEVFDAETGELVEEKTLTADELLELLSAGGS [r8_476_TrROS_Hall] | 3.46 ± 0.16 | 3.81 ± 0.13 | 3.67 ± 0.13
SAGGIEEAIKEGKTVIIRVKVIDKETGKEYERTIEVPANEEISLEELLKALLPPGYEVEIEVVELEPSAGGS [r8_127_TrROS_Hall] | 3.78 ± 0.33 | 3.03 ± 0.51 | 3.65 ± 0.4
MTEEEVRAEAEARARALAEERGVEITAVDIDGEVEQVVETTTRPTPDGRPVTETTSKKIKTKVRATLRPPRS [r1_91_JUSTAS] | -0.107 ± 0.27 | 1.39 ± 0.053 | 1.09 ± 0.14
SAGGSAGGSAGGKVLHVPYENIEEKIKEAEEKYPNKEILIHAYLPNGKLLKTIKIKVKKSAGGSAGGSAGGS [r10_741_TrMRF] | 1.29 ± 0.026 | 1.18 ± 0.03 | 1.23 ± 0.053
